Laboratory results as given in PMC10066184.

Molecular target: GltTk_P208R (UniProt Q5JID0)
Assay: cryo-EM structure; single-particle cryo-EM of GltTk_P208R in MSP2N2 nanodiscs (E. coli lipids), 20 mM Tris-HCl pH 8.0, 100 mM KCl, with 300 mM NaCl and 100 uM L-Asp added; C3 symmetry imposed

Substance: GltTk_P208R (from UniProt Q5JID0 1-430) (natural protein)
- stoichiometry N: 3
